Source: FireProtDB (doi:10.1073/pnas.84.13.4441)

B1: Tryptophan synthase alpha chain, P0A877 (parent)
chain: MERYESLFAQLKERKEGAFVPFVTLGDPGIEQSLKIIDTLIEAGADALELGIPFSDPLADGPTIQNATLRAFAAGVTPAQCFEMLALIRQKHPTIPIGLLMYANLVFNKGIDEFYAQCEKVGVDSVLVADVPVEESAPFRQAALRHNVAPIFICPPNADDDLLRQIASYGRGYTYLLSRAGVTGAENRAALPLNHLVAKLKEYNAAPPLQGFGISAPDQVKAAIDAGAAGAISGSAIVKIIEQHINEPEKMLAALKVFVQPMKAATRS

Variants of: B1
Details: Escherichia coli (strain K12), 25 °C, GdnHCl, CD, Potassium phosphate 20 mM, reversible: yes, structure 1WQ5, whole UniProt chain shown

| Variant | ddG of mutation (higher = less stable) (pH 7) [kcal/mol] | unfolding free energy (pH 7) [kcal/mol] | ddG of mutation (higher = less stable) (pH 9) [kcal/mol] | unfolding free energy (pH 9) [kcal/mol] |
| --- | --- | --- | --- | --- |
| MERYESLFAQLKERKEGAFVPFVTLGDPGIEQSLKIIDTLIEAGADALSLGIPFSDPLADGPTIQNATLRAFAAGVTPAQCFEMLALIRQKHPTIPIGLLMYANLVFNKGIDEFYAQCEKVGVDSVLVADVPVEESAPFRQAALRHNVAPIFICPPNADDDLLRQIASYGRGYTYLLSRAGVTGAENRAALPLNHLVAKLKEYNAAPPLQGFGISAPDQVKAAIDAGAAGAISGSAIVKIIEQHINEPEKMLAALKVFVQPMKAATRS [E49S] | 0.59 | 17.6 | -0.09 | 18.1 |
| MERYESLFAQLKERKEGAFVPFVTLGDPGIEQSLKIIDTLIEAGADALTLGIPFSDPLADGPTIQNATLRAFAAGVTPAQCFEMLALIRQKHPTIPIGLLMYANLVFNKGIDEFYAQCEKVGVDSVLVADVPVEESAPFRQAALRHNVAPIFICPPNADDDLLRQIASYGRGYTYLLSRAGVTGAENRAALPLNHLVAKLKEYNAAPPLQGFGISAPDQVKAAIDAGAAGAISGSAIVKIIEQHINEPEKMLAALKVFVQPMKAATRS [E49T] | 0.62 | 17.5 | 0.26 | 17.7 |
| MERYESLFAQLKERKEGAFVPFVTLGDPGIEQSLKIIDTLIEAGADALVLGIPFSDPLADGPTIQNATLRAFAAGVTPAQCFEMLALIRQKHPTIPIGLLMYANLVFNKGIDEFYAQCEKVGVDSVLVADVPVEESAPFRQAALRHNVAPIFICPPNADDDLLRQIASYGRGYTYLLSRAGVTGAENRAALPLNHLVAKLKEYNAAPPLQGFGISAPDQVKAAIDAGAAGAISGSAIVKIIEQHINEPEKMLAALKVFVQPMKAATRS [E49V] | -0.14 | 18.3 | – | – |
| MERYESLFAQLKERKEGAFVPFVTLGDPGIEQSLKIIDTLIEAGADALWLGIPFSDPLADGPTIQNATLRAFAAGVTPAQCFEMLALIRQKHPTIPIGLLMYANLVFNKGIDEFYAQCEKVGVDSVLVADVPVEESAPFRQAALRHNVAPIFICPPNADDDLLRQIASYGRGYTYLLSRAGVTGAENRAALPLNHLVAKLKEYNAAPPLQGFGISAPDQVKAAIDAGAAGAISGSAIVKIIEQHINEPEKMLAALKVFVQPMKAATRS [E49W] | 0.97 | 17.2 | 1.1 | 16.9 |
| MERYESLFAQLKERKEGAFVPFVTLGDPGIEQSLKIIDTLIEAGADALYLGIPFSDPLADGPTIQNATLRAFAAGVTPAQCFEMLALIRQKHPTIPIGLLMYANLVFNKGIDEFYAQCEKVGVDSVLVADVPVEESAPFRQAALRHNVAPIFICPPNADDDLLRQIASYGRGYTYLLSRAGVTGAENRAALPLNHLVAKLKEYNAAPPLQGFGISAPDQVKAAIDAGAAGAISGSAIVKIIEQHINEPEKMLAALKVFVQPMKAATRS [E49Y] | 0.17 | 18 | -0.26 | 18.2 |
| MERYESLFAQLKERKEGAFVPFVTLGDPGIEQSLKIIDTLIEAGADALNLGIPFSDPLADGPTIQNATLRAFAAGVTPAQCFEMLALIRQKHPTIPIGLLMYANLVFNKGIDEFYAQCEKVGVDSVLVADVPVEESAPFRQAALRHNVAPIFICPPNADDDLLRQIASYGRGYTYLLSRAGVTGAENRAALPLNHLVAKLKEYNAAPPLQGFGISAPDQVKAAIDAGAAGAISGSAIVKIIEQHINEPEKMLAALKVFVQPMKAATRS [E49N] | – | – | -0.27 | 18.2 |
